What was measured:
[1] = molecular target: mature Geh (mGeh) (S. aureus); assay: SEC; analytical gel filtration column (HiLoad 13/300 Super 200); molecular weight estimated from a standard curve (thyroglobulin, ferritin, aldolase, conalbumin, ovalbumin, RNase A, aprotinin)
[2] = molecular target: proGeh (glycerol ester hydrolase, pro form) (S. aureus); assay: as above

| Substance | stoichiometry N [1] | stoichiometry N [2] |
| --- | --- | --- |
| mature Geh (mGeh) (enzyme) | 2 |  |
| proGeh (glycerol ester hydrolase, pro form) (from UniProt A0A1R3UHM3 38-645) (enzyme) |  | 2 |

Source: article PMC10117073
